Test results taken from the supplement of paper PMC10567573.

B1: ZNF449 (parent)
chain: YRHQRLHTGERPYECTVCKKRFTR
B2: WDFY2 (parent)
chain: FWNFKQMWDSKKIGLRQHHCRKCG

Variants of: B1
Assay: protein stability index of a GFP-peptide fusion (GPS, HEK-293T) (PSI 1-6); higher = more stable
Details: c terminus: a fixed tail appended
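Note: lentivirally expressed fusions sorted by FACS into six bins by GFP to DsRed ratio, PSI derived from sequencing read proportions per bin multiplied by bin number.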

Protein stability index, by site and new letter:
V17: G 2.63; T 2.85; I 2.25; K 3.69; D 3.07; L 2.56; P 3.17; R 2.55; W 2.28; E 2.37
R11: I 2.22; S 2.43; Y 2.76; F 2.68; A 2.26; H 2.43
Q4: R 2.36; K 2.39; W 2.11
C15: R 3.53; K 3.42; N 3.44; W 3.07; P 3.4; H 3.33
L6: E 2.09
R2: M 2.33; C 2.66; L 2.16; D 2.48
C18: P 3.45
H3: N 2.69; K 2.05; F 1.66; W 1.65
R21: M 1.89; Q 1.98; H 2.56; Y 2.49
T8: W 2.39; L 1.97; C 2.4; F 2.31; Y 2.22; P 2.52
G9: M 2.25; T 2.23; R 2.45; D 2.35
R24: Q 2.31; D 2.6; G 2.44; P 2.75; T 2.26; A 2.35
K20: H 2.17; F 2.15; G 2.36; Q 2.29; I 2.26; R 1.9; D 1.89
Y13: E 2.63; F 2.86; S 2.08; N 2.04; A 2.43; P 2.35
K19: Y 1.95; F 2.33; V 2.3; Q 2.57; A 2.68
E10: D 2.28; K 2.15; H 2.88; P 2.58
F22: S 3.06; N 3.09; G 2.27; D 2.94; W 2.3; H 3.21; E 3.23; A 2.93; T 2.41; P 2.98
R5: H 3; Q 2.61; M 2.25; G 2.31; A 2.08; Y 2.2
Y1: N 2.35; T 2.65; M 2.92; H 2.98
T16: P 2.22; N 2.46; V 2.07; A 2.12; G 2.33
P12: M 2.32; Y 2.62; D 2.83; E 2.38; T 2.88; C 2.37; W 2.44; N 2.71; G 2.21
T23: F 2.62; G 2.41
H7: S 2.05
E14: T 2.44; W 2.59; Y 2.39; A 2.5; D 2.23

Variants of: B2
Assay: as above
Details: c terminus: a fixed tail appended

Protein stability index, by site and new letter:
C23: Y 1.92; A 1.78; N 2.21; F 2.17; S 1.78; V 1.79; D 1.89
W8: F 2.25; I 1.8; K 2.69; Q 2.39; R 2.58; C 2.34; T 2.07; E 3.3; M 3.04; G 2.48; H 2.79
W2: E 3.29; R 2.61; V 3.04; G 1.8; T 2.12; D 2.78; M 2.39
R21: S 1.72; A 2.34; F 1.76; I 1.29; D 2.04; M 2.21; P 1.53; K 2.01; H 2.66; N 2.46; L 1.1
H18: P 2.05; E 2.25; M 1.38; Q 1.44; W 2.18; S 1.84
K11: N 2.7; A 2.93; C 2.65; H 2.12; G 2.44; F 2.48; V 1.99; D 2.1; Q 2.54; T 1.76
L15: D 2.17; N 2.11; E 2.48; Q 1.95; A 2.01; W 1.42; H 1.71
F1: P 2.99; Y 1.52; A 2.86; L 1.44; T 2.14; Q 2.11; I 2.08; C 2.65; E 3.02; G 2.32
G24: E 2.13; V 3.27; Q 1.95; R 2.3; T 2.7; L 1.43; F 1.23; Y 2.73
G14: L 2; R 1.9; K 2.14; N 1.95; A 1.66; M 1.89; I 1.48
K5: G 1.5; P 1.98; D 1.96; I 1.7; W 1.38; N 1.76; T 1.5; H 1.66; C 2.66; Q 2.4; M 2.6
I13: G 1.99; C 2.72; D 2.55; A 2.52; T 1.66
N3: D 2.05; E 2.12; F 2.05; W 1.65; G 2.28; Y 1.91; K 1.7; A 1.22; T 1.8; I 1.84; P 1.85
M7: I 1.92; C 2.09; A 2.19; F 2.09; Y 2.34; K 1.69; V 1.71
K22: D 1.79; L 1.47; H 1.23; E 1.65
C20: L 2.09; Y 1.84; V 1.73; G 2.91; N 2.31; R 2.37; H 3.07; F 2.54
R16: Q 2.66; C 1.59; T 1.67; N 1.84; P 3.42; F 3.39; M 1.94; L 1.76; H 2.06; Y 1.85; E 2.92; K 1.53; G 1.54
S10: K 2.04; T 1.73; E 1.72; F 1.72; I 2.94; D 1.75; L 1.67; C 1.94
K12: Y 1.53; L 1.89; W 2.3; N 1.85; R 1.71; F 1.84; P 2.03; S 2.62; D 1.88; Q 2.1
Q17: D 1.9; E 1.53; L 1.99; T 1.2; M 1.91; H 2.18; V 2.13; A 2.32; Y 2.12; P 2.52; C 1.61
H19: Q 1.87; L 2.02; S 2.02; T 1.72; P 2.17; N 2.68; A 1.86; W 1.69; E 1.62
D9: E 2.3; Q 1.84; V 3.81; R 1.73; I 2.56; N 1.81; T 1; Y 2.95; G 1.77; W 1.81
F4: N 2.29; P 1.93; G 2.23; S 2.12; I 1.51; E 2.39; H 2.47; M 2.26; C 2.36; Y 1.99; W 2.26
Q6: E 1.89; A 1.56; V 1.51; W 1.28; K 2.44; D 1.91; G 2.79; S 1.85; R 1.79; N 2.27; F 1.53; P 2.04; T 1.82
